How the values were obtained:
[1] = biological target: fluorescently-labeled NCP carrying H2AK13ub and H2AK15ub (NCP^ub) (human) (UniProt P0CG48); assay: fluorescence polarisation
[2] = biological target: fluorescently-labeled nucleosome core particle (NCP) (human); assay: fluorescence polarisation

Kd [1]	Kd [2]	Substance
1400 nM	–	RNF168 MIU2-LRM (aa 430–481) (from UniProt Q8IYW5 430-481) (domain or fragment)
–	400 nM	RNF168 RING domain (RNF168^R, aa 1–94) (from UniProt Q8IYW5 1-94) (domain or fragment)
50 nM	120 nM	full-length human RNF168 (RNF168^FL, aa 1–571) (from UniProt Q8IYW5 1-571) (natural protein)

From PMC10939898
